Kd data for 1 protein are collected here from article PMC7092940 (2005).

For orientation: Kd means the equilibrium constant for the complex coming apart.

The series concerns the molecule itself.

B1: SARS 3CL proteinase (protein)
chain: SGFRKMAFPSGKVEGCMVQVTCGTTTLNGLWLDDTVYCPRHVICTAEDMLNPNYEDLLIRKSNHSFLVQAGNVQLRVIGHSMQNCLLRLKVDTSNPKTPKYKFVRIQPGQTFSVLACYNGSPSGVYQCAMRPNHTIKGSFLNGSCGSVGFNIDYDCVSFCYMHHMELPTGVHAGTDLEGKFYGPFVDRQTAQAAGTDTTITLNVLAWLYAAVINGDRWFLNRFTTTLNDFNLVAMKYNYEPLTQDHVDILGPLSAQTGIAVLDMCAALKELLQNGMNGRTILGSTILEDEFTPFDVVRQCSGVTFQ
B1 displayed a Kd of 14 µM.
